Results published in patent EP1396498A1, “A pair of polypeptides with specific and strong interaction” (Max-Planck-Gesellschaft zur Förderung der Wissenschaften …, priority 2002, dated 2004).

T1: GST-Dsl1p (Saccharomyces cerevisiae, UniProt P53847)
T1 construct: when introduced into full length GST-Dsl1p; made in house; host or cells: E. coli (BL21DE3 or C41DE3)
T1 sequence (P53847 1-754): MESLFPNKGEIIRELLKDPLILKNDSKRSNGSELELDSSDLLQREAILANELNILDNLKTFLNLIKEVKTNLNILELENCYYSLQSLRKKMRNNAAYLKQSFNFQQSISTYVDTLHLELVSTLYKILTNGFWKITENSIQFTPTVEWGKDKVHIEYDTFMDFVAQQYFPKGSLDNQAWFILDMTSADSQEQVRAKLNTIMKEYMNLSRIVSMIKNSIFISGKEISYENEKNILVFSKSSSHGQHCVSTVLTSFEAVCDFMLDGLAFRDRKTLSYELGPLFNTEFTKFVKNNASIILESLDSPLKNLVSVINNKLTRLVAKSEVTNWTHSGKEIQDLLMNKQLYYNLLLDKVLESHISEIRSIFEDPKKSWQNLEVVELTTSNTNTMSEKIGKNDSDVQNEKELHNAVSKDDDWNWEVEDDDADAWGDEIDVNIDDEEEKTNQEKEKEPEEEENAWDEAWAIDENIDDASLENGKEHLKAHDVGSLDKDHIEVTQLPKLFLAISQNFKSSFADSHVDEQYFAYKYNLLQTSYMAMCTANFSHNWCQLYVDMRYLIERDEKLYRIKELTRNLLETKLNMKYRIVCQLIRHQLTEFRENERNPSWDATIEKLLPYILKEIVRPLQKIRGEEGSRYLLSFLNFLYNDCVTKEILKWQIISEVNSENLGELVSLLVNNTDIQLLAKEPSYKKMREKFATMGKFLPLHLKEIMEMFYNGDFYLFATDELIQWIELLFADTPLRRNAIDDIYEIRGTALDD

T2: GST-Dsl1p (S. cerevisiae (yeast), UniProt P53847 1-754)
T2 construct: Made in E. coli and immobilised on glutathione-Sepharose 4B; also called GST-tagged Dsl1p; full length GST-Dsl1p; not shown: glutathione S-transferase (GST) encoded by pGEX-TT (pGEX-2T with modified polylinker); placement and linker residues not
T2 sequence (looked up): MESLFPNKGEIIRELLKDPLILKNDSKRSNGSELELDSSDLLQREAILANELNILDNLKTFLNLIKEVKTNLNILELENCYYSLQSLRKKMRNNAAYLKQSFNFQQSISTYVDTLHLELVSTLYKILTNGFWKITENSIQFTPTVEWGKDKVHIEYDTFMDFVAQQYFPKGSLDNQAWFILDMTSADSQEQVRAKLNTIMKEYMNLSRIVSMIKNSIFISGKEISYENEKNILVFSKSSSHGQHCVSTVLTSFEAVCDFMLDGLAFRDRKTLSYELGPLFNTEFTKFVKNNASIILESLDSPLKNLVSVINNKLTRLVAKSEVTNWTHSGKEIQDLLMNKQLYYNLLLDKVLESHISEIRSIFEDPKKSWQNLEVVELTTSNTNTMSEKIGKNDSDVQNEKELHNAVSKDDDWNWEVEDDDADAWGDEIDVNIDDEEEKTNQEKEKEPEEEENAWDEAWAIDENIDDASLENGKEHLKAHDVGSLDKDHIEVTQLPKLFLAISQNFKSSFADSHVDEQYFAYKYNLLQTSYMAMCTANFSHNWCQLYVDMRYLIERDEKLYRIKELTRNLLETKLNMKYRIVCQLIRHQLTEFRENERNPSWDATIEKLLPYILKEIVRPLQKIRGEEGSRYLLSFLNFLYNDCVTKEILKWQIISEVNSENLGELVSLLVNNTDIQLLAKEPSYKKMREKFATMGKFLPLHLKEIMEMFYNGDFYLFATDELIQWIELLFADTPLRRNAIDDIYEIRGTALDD


Key:
[1] = biological target: T1, GST-Dsl1p; assay: peptide spot overlay assay: 13-mer δ-COP peptides on cellulose membrane; type: binding; conditions: 13-mer peptides spanning amino acids 191-302 of δ-COP; detection with anti-Dsl1p antibodies
From the text: To further delineate the Dsl1p binding domain in δ-COP 13-mer peptides spanning amino acids 191-302 of δ-COP were synthesized on a cellulose membrane (overlap in sequence by 10 amino acids; Jerini; Berlin, Germany) and probed with to GST-Dsl1p. Anti-Dsllp antibodies were used to detect bound GST-Dsl1p. […] We cannot exclude that peptides from position 248 to 270 also bind to Dsl1p since anti-Dsl1 antibody alone gave already a weak signal with peptides derived from this region. […] To this resin we applied crude extract of E. coli cells producing a chimeric protein consisting of GST and the δ-COP binding domain (GST-L4, "WxW"; L4 = D-type-polypeptide; SED ID NO 1 ([…]-NIDDEEEKT)). After washing thoroughly, bound proteins were eluted and analyzed by SDS-PAGE followed by Coomassie staining. […]
To analyze the Ds11p binding region within the Ret2 protein overlapping 13-mer peptides (overlap 10 residues each) spanning the region between residue 191 and 302 were directly synthesized on a cellulose membrane (Jerini; Berlin, Germany). […] After 2 h incubation with purified GST-Ds11p in blocking buffer, the membrane was washed three times with Tris/HCl-buffer and bound GST-Ds11p was detected by using α-Dsl1p antibodies and the ECL detection system (AmershamPharmaciaBiotech).

[2] = biological target: T2, GST-Dsl1p; assay: peptide spot overlay on cellulose membrane, detected with anti-Dsl1p antibodies

Molecule | signal of bound GST-Dsl1p [1] | binding result [2]
R-type-peptide: peptide representing residues 242 to 254 of δ-COP, RAGHSATGGMKLG | strongest signal | –
RAGHSATGGMKLG (A spot on a peptide array of 13-mers that overlap by 10 residues and span aa 191-302; also called R-type-peptide) [13-mer peptide representing residues 242 to 254 of δ-COP, synthesized on a cellulose membrane] | – | binds
